Data from patent publication US20200199204A1.

Tests used:
Assay in all cases: cell-based or functional assay
[1] = molecular target: HIV-1 Env of 0260.v5.c36 (HIV-1)
[2] = molecular target: HIV-1 Env of 191821.E6.1 (HIV-1)
[3] = molecular target: HIV-1 Env of 3016.V5.c36 (HIV-1)
[4] = molecular target: HIV-1 Env of 6405.v4.c34 (HIV-1)
[5] = molecular target: HIV-1 Env of 6535.3 (HIV-1)
[6] = molecular target: HIV-1 Env of 96ZM651.02 (HIV-1)
[7] = molecular target: HIV-1 Env of AC10.29 (HIV-1)
[8] = molecular target: HIV-1 Env of BG505.w6m (HIV-1)
[9] = molecular target: HIV-1 Env of C1080.c3 (HIV-1)
[10] = molecular target: HIV-1 Env of CAAN.A2 (HIV-1)
[11] = molecular target: HIV-1 Env of CAP210.E8 (HIV-1)
[12] = molecular target: HIV-1 Env of CAP244.D3 (HIV-1)
[13] = molecular target: HIV-1 Env of CAP256.PI (HIV-1)
[14] = molecular target: HIV-1 Env of CAP256.SU (HIV-1)
[15] = molecular target: HIV-1 Env of CAP45.G3 (HIV-1)
[16] = molecular target: HIV-1 Env of CM244.ec1 (HIV-1)
[17] = molecular target: HIV-1 Env of CNE3 (HIV-1)
[18] = molecular target: HIV-1 Env of DU156.12 (HIV-1)
[19] = molecular target: HIV-1 Env of DU172.17 (HIV-1)
[20] = molecular target: HIV-1 Env of DU422.01 (HIV-1)
[21] = molecular target: HIV-1 Env of KER2008.12 (HIV-1)
[22] = molecular target: HIV-1 Env of KER2018.11 (HIV-1)
[23] = molecular target: HIV-1 Env of MB201 (HIV-1)
[24] = molecular target: HIV-1 Env of MB539.2B7 (HIV-1)
[25] = molecular target: HIV-1 Env of PVO.04 (HIV-1)
[26] = molecular target: HIV-1 Env of Q168.a2 (HIV-1)
[27] = molecular target: HIV-1 Env of Q23.17 (HIV-1)
[28] = molecular target: HIV-1 Env of Q259.d2.17 (HIV-1)
[29] = molecular target: HIV-1 Env of Q461.e2 (HIV-1)
[30] = molecular target: HIV-1 Env of Q769.d22 (HIV-1)
[31] = molecular target: HIV-1 Env of Q842.d12 (HIV-1)
[32] = molecular target: HIV-1 Env of QH0692.42 (HIV-1)
[33] = molecular target: HIV-1 Env of REJO.67 (HIV-1)
[34] = molecular target: HIV-1 Env of RHPA.7 (HIV-1)
[35] = molecular target: HIV-1 Env of RW020.2 (HIV-1)
[36] = molecular target: HIV-1 Env of SC422.8 (HIV-1)
[37] = molecular target: HIV-1 Env of TH976.17 (HIV-1)
[38] = molecular target: HIV-1 Env of THRO.18 (HIV-1)
[39] = molecular target: HIV-1 Env of TRJO.58 (HIV-1)
[40] = molecular target: HIV-1 Env of TRO.11 (HIV-1)
[41] = molecular target: HIV-1 Env of UG037.8 (HIV-1)
[42] = molecular target: HIV-1 Env of WITO.33 (HIV-1)
[43] = molecular target: HIV-1 Env of ZM109.4 (HIV-1)
[44] = molecular target: HIV-1 Env of ZM135.10a (HIV-1)
[45] = molecular target: HIV-1 Env of ZM197.7 (HIV-1)
[46] = molecular target: HIV-1 Env of ZM214.15 (HIV-1)
[47] = molecular target: HIV-1 Env of ZM233.6 (HIV-1)
[48] = molecular target: HIV-1 Env of ZM249.1 (HIV-1)
[49] = molecular target: HIV-1 Env of ZM53.12 (HIV-1)

Substance: CAP256-VRC26.14 (antibody)
- IC50 [1]: > 50 µg/mL
- IC50 [2]: 3.36 µg/mL
- IC50 [3]: 0.012 µg/mL
- IC50 [4]: > 50 µg/mL
- IC50 [5]: > 50 µg/mL
- IC50 [6]: > 50 µg/mL
- IC50 [7]: > 50 µg/mL
- IC50 [8]: 0.75 µg/mL
- IC50 [9]: 0.779 µg/mL
- IC50 [10]: > 50 µg/mL
- IC50 [11]: 0.012 µg/mL
- IC50 [12]: > 50 µg/mL
- IC50 [13]: > 50 µg/mL
- IC50 [14]: 0.004 µg/mL
- IC50 [15]: > 50 µg/mL
- IC50 [16]: 6.16 µg/mL
- IC50 [17]: > 50 µg/mL
- IC50 [18]: > 50 µg/mL
- IC50 [19]: > 50 µg/mL
- IC50 [20]: 49 µg/mL
- IC50 [21]: > 50 µg/mL
- IC50 [22]: 0.03 µg/mL
- IC50 [23]: > 50 µg/mL
- IC50 [24]: > 50 µg/mL
- IC50 [25]: > 50 µg/mL
- IC50 [26]: > 50 µg/mL
- IC50 [27]: > 50 µg/mL
- IC50 [28]: 2.13 µg/mL
- IC50 [29]: > 50 µg/mL
- IC50 [30]: > 50 µg/mL
- IC50 [31]: > 50 µg/mL
- IC50 [32]: > 50 µg/mL
- IC50 [33]: > 50 µg/mL
- IC50 [34]: > 50 µg/mL
- IC50 [35]: > 50 µg/mL
- IC50 [36]: > 50 µg/mL
- IC50 [37]: > 50 µg/mL
- IC50 [38]: > 50 µg/mL
- IC50 [39]: > 50 µg/mL
- IC50 [40]: > 50 µg/mL
- IC50 [41]: > 50 µg/mL
- IC50 [42]: > 50 µg/mL
- IC50 [43]: > 50 µg/mL
- IC50 [44]: > 50 µg/mL
- IC50 [45]: 4.96 µg/mL
- IC50 [46]: > 50 µg/mL
- IC50 [47]: 0.028 µg/mL
- IC50 [48]: > 50 µg/mL
- IC50 [49]: 0.006 µg/mL

Substance: CAP256-VRC26.15 (antibody)
- IC50 [1]: > 50 µg/mL
- IC50 [2]: > 50 µg/mL
- IC50 [3]: 0.16 µg/mL
- IC50 [4]: > 50 µg/mL
- IC50 [5]: > 50 µg/mL
- IC50 [6]: > 50 µg/mL
- IC50 [7]: > 50 µg/mL
- IC50 [8]: 11.7 µg/mL
- IC50 [9]: > 50 µg/mL
- IC50 [10]: > 50 µg/mL
- IC50 [11]: 0.019 µg/mL
- IC50 [12]: > 50 µg/mL
- IC50 [13]: > 50 µg/mL
- IC50 [14]: 0.008 µg/mL
- IC50 [15]: > 50 µg/mL
- IC50 [16]: 0.112 µg/mL
- IC50 [17]: > 50 µg/mL
- IC50 [18]: 10.4 µg/mL
- IC50 [19]: > 50 µg/mL
- IC50 [20]: 0.153 µg/mL
- IC50 [21]: > 50 µg/mL
- IC50 [22]: 0.04 µg/mL
- IC50 [23]: > 50 µg/mL
- IC50 [24]: > 50 µg/mL
- IC50 [25]: 30 µg/mL
- IC50 [26]: > 50 µg/mL
- IC50 [27]: 0.338 µg/mL
- IC50 [28]: 0.657 µg/mL
- IC50 [29]: 19.9 µg/mL
- IC50 [30]: > 50 µg/mL
- IC50 [31]: 9.35 µg/mL
- IC50 [32]: > 50 µg/mL
- IC50 [33]: > 50 µg/mL
- IC50 [34]: > 50 µg/mL
- IC50 [35]: > 50 µg/mL
- IC50 [36]: > 50 µg/mL
- IC50 [37]: > 50 µg/mL
- IC50 [38]: > 50 µg/mL
- IC50 [39]: > 50 µg/mL
- IC50 [40]: > 50 µg/mL
- IC50 [41]: > 50 µg/mL
- IC50 [42]: > 50 µg/mL
- IC50 [43]: > 50 µg/mL
- IC50 [44]: > 50 µg/mL
- IC50 [45]: 14.6 µg/mL
- IC50 [46]: > 50 µg/mL
- IC50 [47]: 0.192 µg/mL
- IC50 [48]: > 50 µg/mL
- IC50 [49]: 0.014 µg/mL

Substance: CAP256-VRC26.16 (antibody)
- IC50 [1]: > 50 µg/mL
- IC50 [2]: 0.82 µg/mL
- IC50 [3]: 0.012 µg/mL
- IC50 [4]: > 50 µg/mL
- IC50 [5]: > 50 µg/mL
- IC50 [6]: > 50 µg/mL
- IC50 [7]: > 50 µg/mL
- IC50 [8]: 0.36 µg/mL
- IC50 [9]: 5.9 µg/mL
- IC50 [10]: > 50 µg/mL
- IC50 [11]: 0.009 µg/mL
- IC50 [12]: > 50 µg/mL
- IC50 [13]: > 50 µg/mL
- IC50 [14]: 0.004 µg/mL
- IC50 [15]: > 50 µg/mL
- IC50 [16]: 0.67 µg/mL
- IC50 [17]: > 50 µg/mL
- IC50 [18]: 48.7 µg/mL
- IC50 [19]: > 50 µg/mL
- IC50 [20]: 3.9 µg/mL
- IC50 [21]: > 50 µg/mL
- IC50 [22]: 0.062 µg/mL
- IC50 [23]: > 50 µg/mL
- IC50 [24]: > 50 µg/mL
- IC50 [25]: > 50 µg/mL
- IC50 [26]: > 50 µg/mL
- IC50 [27]: > 50 µg/mL
- IC50 [28]: 5.78 µg/mL
- IC50 [29]: > 50 µg/mL
- IC50 [30]: > 50 µg/mL
- IC50 [31]: > 50 µg/mL
- IC50 [32]: > 50 µg/mL
- IC50 [33]: > 50 µg/mL
- IC50 [34]: > 50 µg/mL
- IC50 [35]: > 50 µg/mL
- IC50 [36]: > 50 µg/mL
- IC50 [37]: > 50 µg/mL
- IC50 [38]: > 50 µg/mL
- IC50 [39]: > 50 µg/mL
- IC50 [40]: > 50 µg/mL
- IC50 [41]: > 50 µg/mL
- IC50 [42]: > 50 µg/mL
- IC50 [43]: > 50 µg/mL
- IC50 [44]: > 50 µg/mL
- IC50 [45]: 2.21 µg/mL
- IC50 [46]: > 50 µg/mL
- IC50 [47]: 0.031 µg/mL
- IC50 [48]: 45 µg/mL
- IC50 [49]: 0.006 µg/mL
